Source: US20140178389A1 (AbbVie / Abbott, published 2014)

What was measured:
recombinant human IL-1β [1] = target: T1, recombinant human IL-1β (human, UniProt P01584 117-269); experiment: cell-based or functional assay
recombinant human IL-1α [2] = target: T2, recombinant human IL-1α (human, UniProt P01583 113-271); experiment: cell-based or functional assay
T2 sequence: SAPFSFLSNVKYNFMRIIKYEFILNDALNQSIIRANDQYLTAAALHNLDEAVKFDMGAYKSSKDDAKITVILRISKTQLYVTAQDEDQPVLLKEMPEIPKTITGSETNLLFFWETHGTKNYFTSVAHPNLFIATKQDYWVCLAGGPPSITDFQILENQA

[3] = target: T3, recombinant cynomolgus IL-1β (cynomolgus, UniProt P79182 117-268); experiment: cell-based or functional assay
T3 sequence (looked up): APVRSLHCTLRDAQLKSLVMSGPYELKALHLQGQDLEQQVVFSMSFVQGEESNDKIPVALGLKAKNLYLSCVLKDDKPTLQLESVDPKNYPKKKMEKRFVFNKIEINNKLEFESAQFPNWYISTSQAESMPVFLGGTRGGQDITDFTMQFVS

[4] = target: T4, recombinant cynomolgus IL-1α (cynomolgus, UniProt P79340 113-271); experiment: cell-based or functional assay
T4 sequence (looked up): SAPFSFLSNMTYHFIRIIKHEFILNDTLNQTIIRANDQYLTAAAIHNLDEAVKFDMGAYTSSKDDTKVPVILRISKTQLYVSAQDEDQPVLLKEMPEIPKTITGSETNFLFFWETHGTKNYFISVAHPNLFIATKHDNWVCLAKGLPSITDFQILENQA

[5] = target: T5, purified native human IL-1β (human, UniProt P01584 117-269); experiment: cell-based or functional assay
[6] = target: T6, native human IL-1α present in crude supernatants (human, UniProt P01583 113-271, limits assumed); experiment: cell-based or functional assay
T6 sequence (looked up): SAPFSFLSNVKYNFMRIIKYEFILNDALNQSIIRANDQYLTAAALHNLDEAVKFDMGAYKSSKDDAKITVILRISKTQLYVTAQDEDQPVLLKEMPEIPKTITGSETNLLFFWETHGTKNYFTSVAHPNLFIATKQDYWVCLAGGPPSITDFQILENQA

recombinant human IL-1β [7] = target: T1, recombinant human IL-1β; experiment: SPR (Biacore), Ig captured via goat anti-human IgG Fc, antigen in solution
Protocol: (§1) Goat IgGs specific to human IgG Fc were covalently linked to the carboxy methyl dextran matrix on the CMS biosensor chip via free amine groups using an amine coupling kit and the immobilization wizard option in the Biacore instruments controlling software. Specifically, carboxyl groups of the dextran matrix on the chip were activated with NHS and EDC. Goat anti-human IgG Fc antibodies (25 μg/mL), diluted in 10 mM sodium acetate, pH 4.5, were injected across the activated surface. Once the level of binding response reached the desired value, unreacted groups were deactivated by injection of 1M ethanolamine. For binding of IL-1α & IL-1β to captured Ig, a 1 μg/mL concentration of Ig in HBS-EP+ was injected over the goat anti-human IgG Fc surface at a flow rate of 10 μL/min for 1 minute. The net difference in the baseline signal and the signal after the completion of the Ig injection was taken to represent the amount of bound Ig.

recombinant human IL-1α [8] = target: T2, recombinant human IL-1α; experiment: as above
Protocol: as §1

[9] = target: T3, recombinant cynomolgus IL-1β; experiment: as above
Protocol: as §1

[10] = target: T4, recombinant cynomolgus IL-1α; experiment: as above
Protocol: as §1

recombinant human IL-1β [11] = target: T1, recombinant human IL-1β; experiment: SPR (Biacore), Expt 1
Protocol: as §1

[12] = target: T3, recombinant cynomolgus IL-1β; experiment: SPR (Biacore), Expt 1
Protocol: as §1

recombinant human IL-1β [13] = target: T1, recombinant human IL-1β; experiment: SPR (Biacore), Expt 2
Protocol: as §1

[14] = target: T3, recombinant cynomolgus IL-1β; experiment: SPR (Biacore), Expt 2
Protocol: as §1

recombinant human IL-1β [15] = target: T1, recombinant human IL-1β; experiment: SPR (Biacore), average of 2 experiments
Protocol: as §1

[16] = target: T3, recombinant cynomolgus IL-1β; experiment: SPR (Biacore), average of 2 experiments
Protocol: as §1

recombinant human IL-1β [17] = target: T1, recombinant human IL-1β; experiment: cell-based or functional assay; remark: listed apart in the source
recombinant human IL-1α [18] = target: T2, recombinant human IL-1α; experiment: cell-based or functional assay; remark: listed apart in the source
[19] = target: T3, recombinant cynomolgus IL-1β; experiment: cell-based or functional assay; remark: listed apart in the source
[20] = target: T4, recombinant cynomolgus IL-1α; experiment: cell-based or functional assay; remark: listed apart in the source
[21] = target: T5, purified native human IL-1β; experiment: cell-based or functional assay; remark: listed apart in the source
[22] = target: T6, native human IL-1α present in crude …; experiment: cell-based or functional assay; remark: listed apart in the source
recombinant human IL-1β [23] = target: T1, recombinant human IL-1β; experiment: SPR (BIAcore), DVD-Ig captured via goat anti-human IgG Fc
Protocol: as §1
(§2) The potency of the 5 DVD-Igs containing affinity matured h1B12.1 domains to recombinant and native IL-1 antigens was determined using the MRC-5 bioassay as shown in Table 24. The binding kinetics of the DVD-Igs to recombinant human and cynomolgus IL-1α and IL-1β were determined using surface plasmon resonance. In some cases, the off-rate could not be determined as they reached the limit of detection of the instrument.

recombinant human IL-1α [24] = target: T2, recombinant human IL-1α; experiment: as above
Protocol: as §1, §2

[25] = target: T3, recombinant cynomolgus IL-1β; experiment: as above
Protocol: as §1, §2

[26] = target: T4, recombinant cynomolgus IL-1α; experiment: as above
Protocol: as §1, §2

recombinant human IL-1β [27] = target: T1, recombinant human IL-1β; experiment: SPR (BIAcore); KD calculated assuming an off-rate of 1x10^-6
Protocol: as §1, §2

recombinant human IL-1β [28] = target: T1, recombinant human IL-1β; experiment: SPR (BIAcore); the off-rate reached the limit of detection of the instrument
Protocol: as §1, §2

B1: 1B12.1-SS-X3 DVD-Ig IgG1/k mut (234,235) (bispecific antibody)
heavy: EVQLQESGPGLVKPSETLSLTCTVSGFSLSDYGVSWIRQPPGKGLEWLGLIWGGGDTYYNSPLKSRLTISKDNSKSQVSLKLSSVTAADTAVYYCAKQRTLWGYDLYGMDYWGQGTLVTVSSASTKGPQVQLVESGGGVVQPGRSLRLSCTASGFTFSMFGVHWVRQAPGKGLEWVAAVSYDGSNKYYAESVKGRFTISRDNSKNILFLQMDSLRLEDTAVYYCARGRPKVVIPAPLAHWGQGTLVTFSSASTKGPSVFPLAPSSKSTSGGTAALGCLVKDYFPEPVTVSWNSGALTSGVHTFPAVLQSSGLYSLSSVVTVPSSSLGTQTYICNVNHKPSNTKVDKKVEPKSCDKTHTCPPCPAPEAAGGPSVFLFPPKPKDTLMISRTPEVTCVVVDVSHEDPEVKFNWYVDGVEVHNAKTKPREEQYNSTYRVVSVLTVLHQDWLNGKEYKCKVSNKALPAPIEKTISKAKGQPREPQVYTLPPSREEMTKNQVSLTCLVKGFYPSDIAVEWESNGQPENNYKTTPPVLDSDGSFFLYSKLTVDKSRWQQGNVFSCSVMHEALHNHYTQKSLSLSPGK
light: DTQVTQSPSSLSASVGDRVTITCITSTDIDVDMNWYQQKPGKPPKLLISQGNTLRPGVPSRFSSSGSGTDFTFTISSLQPEDFATYYCLQSDNLPLTFGQGTKLEIKRTVAAPDIQMTQSPSSVSASVGDRVTITCRASQGISSWLAWYQQKPGKAPKLLIYEASNLETGVPSRFSGSGSGSDFTLTISSLQPEDFATYYCQQTSSFLLSFGGGTKVEHKRTVAAPSVFIFPPSDEQLKSGTASVVCLLNNFYPREAKVQWKVDNALQSGNSQESVTEQDSKDSTYSLSSTLTLSKADYEKHKVYACEVTHQGLSSPVTKSFNRGEC
notes: also called PR-1308565
With B1 the “Potency IC50 (pM), MRC-5 bioassay (IL-8 secretion)” value (“Potency IC50 (pM), MRC-5 bioassay” for short) (recombinant human IL-1β [1]) was 26 pM, the “Potency IC50 (pM), MRC-5 bioassay” value (recombinant human IL-1α [2]) was 27 pM and the “Potency IC50 (pM), MRC-5 bioassay” value [3] was 461 pM. The “Potency IC50 (pM), MRC-5 bioassay” value [4] was 2510 pM, the “Potency IC50 (pM), MRC-5 bioassay” value [5] was 156 pM and the “Potency IC50 (pM), MRC-5 bioassay” value [6] was 79 pM. It also gave a Kd (recombinant human IL-1β [7]) of under 820 pM, a koff (recombinant human IL-1β [7]) of 0.00082 s⁻¹ and a kon (recombinant human IL-1β [7]) of over 1e+06 M⁻¹ s⁻¹. It also gave a Kd (recombinant human IL-1α [8]) of 120 pM, a koff (recombinant human IL-1α [8]) of 2.4e-05 s⁻¹ and a kon (recombinant human IL-1α [8]) of 210000 M⁻¹ s⁻¹. For the same binder, the Kd [9] was 110 pM, the koff [9] was 0.0008 s⁻¹ and the kon [9] was 7.3e+06 M⁻¹ s⁻¹. It also gave a Kd [10] of 3500 pM, a koff [10] of 0.00026 s⁻¹ and a kon [10] of 74000 M⁻¹ s⁻¹.

B2: 1B12.9, human anti-IL-1β IgG1/k mut (234,235) (antibody, V domains shown)
VH: EVQLQESGPGLVKPSETLSLTCTVSGFSLSDYGVSWIRQPPGKGLEWLGLIWGGGDTYYNSPLKSRLTISKDNSKSQVSLKLSSVTAADTAVYYCAKQRTLWGYDLYGMDYWGQGTLVTVSS
VL: DTQMTQSPSSLSASVGDRVTITCITSTDIDVDMNWYQQKPGKPPKLLISQGNTLRPGVPSRFSSSGSGTDFTFTISSLQPEDFATYYCLQSDNLPLTFGQGTKLEIKR
notes: also called PR-1317335; mAb 1B12.9
With B2 the Kd (recombinant human IL-1β [11]) was 140 pM, the koff (recombinant human IL-1β [11]) was 0.00076 s⁻¹ and the kon (recombinant human IL-1β [11]) was 5.5e+06 M⁻¹ s⁻¹. The Kd [12] was 490 pM, the koff [12] was 0.00098 s⁻¹ and the kon [12] was 2e+06 M⁻¹ s⁻¹. For the same binder, the Kd (recombinant human IL-1β [13]) was 130 pM, the koff (recombinant human IL-1β [13]) was 0.00077 s⁻¹ and the kon (recombinant human IL-1β [13]) was 5.8e+06 M⁻¹ s⁻¹. For the same binder, the Kd [14] was 600 pM, the koff [14] was 0.00085 s⁻¹ and the kon [14] was 1.4e+06 M⁻¹ s⁻¹. For the same binder, the “Potency IC50 (pM), MRC-5 bioassay” value (recombinant human IL-1β [1]) was 691 pM, the “Potency IC50 (pM), MRC-5 bioassay” value [3] was 352 pM and the “Potency IC50 (pM), MRC-5 bioassay” value [5] was 214 pM. The Kd (recombinant human IL-1β [15]) was 140 pM, the koff (recombinant human IL-1β [15]) was 0.00077 s⁻¹ and the kon (recombinant human IL-1β [15]) was 5.7e+06 M⁻¹ s⁻¹. The Kd [16] was 550 pM, the koff [16] was 0.00092 s⁻¹ and the kon [16] was 1.7e+06 M⁻¹ s⁻¹.

B3: Humanized monoclonal antibody 1B12.1 (antibody, V domains shown)
VH: EVQLQESGPGLVKPSETLSLTCTVSGFSLSDYGVSWIRQPPGKGLEWLGLIWGGGDTYYNSPLKSRLTISKDNSKSQVSLKLSSVTAADTAVYYCAKQRTLWGYDLYGMDYWGQGTLVTVSS
VL: DTQVTQSPSSLSASVGDRVTITCITSTDIDVDMNWYQQKPGKPPKLLISQGNTLRPGVPSRFSSSGSGTDFTFTISSLQPEDFATYYCLQSDNLPLTFGQGTKLEIK
For B3, the “Potency IC50 (pM), MRC-5 bioassay” value (recombinant human IL-1β [1]) was 913 pM, the “Potency IC50 (pM), MRC-5 bioassay” value [3] was 410 pM and the “Potency IC50 (pM), MRC-5 bioassay” value [5] was 329 pM.

B4: DVD3-h1B12.34-SS-X3, human anti-IL-1α/β DVD IgG1/k mut (234,235) (bispecific antibody)
heavy: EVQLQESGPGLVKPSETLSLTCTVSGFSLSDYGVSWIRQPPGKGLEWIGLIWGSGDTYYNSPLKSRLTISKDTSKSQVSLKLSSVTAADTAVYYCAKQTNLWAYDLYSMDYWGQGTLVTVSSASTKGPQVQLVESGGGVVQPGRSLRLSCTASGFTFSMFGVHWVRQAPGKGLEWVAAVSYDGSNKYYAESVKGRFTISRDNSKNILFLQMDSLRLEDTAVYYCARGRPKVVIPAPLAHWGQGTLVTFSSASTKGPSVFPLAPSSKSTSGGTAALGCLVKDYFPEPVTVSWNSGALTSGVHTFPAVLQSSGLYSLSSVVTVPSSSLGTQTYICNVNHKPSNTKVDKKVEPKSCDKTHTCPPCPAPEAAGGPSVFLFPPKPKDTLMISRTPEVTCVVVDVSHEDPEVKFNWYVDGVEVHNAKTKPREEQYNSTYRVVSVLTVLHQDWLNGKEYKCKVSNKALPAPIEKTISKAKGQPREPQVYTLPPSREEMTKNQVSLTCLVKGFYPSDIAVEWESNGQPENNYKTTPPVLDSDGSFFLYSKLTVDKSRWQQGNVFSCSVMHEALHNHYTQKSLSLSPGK
light: DIQMTQSPSSLSASVGDRVTITCQASQDIDDDLNWYQQKPGKAPKLLISLASILRPGVPSRFSGSGSGTDFTFTISSLQPEDFATYYCLQSDSFPLTFGQGTKLEIKRTVAAPDIQMTQSPSSVSASVGDRVTITCRASQGISSWLAWYQQKPGKAPKLLIYEASNLETGVPSRFSGSGSGSDFTLTISSLQPEDFATYYCQQTSSFLLSFGGGTKVEHKRTVAAPSVFIFPPSDEQLKSGTASVVCLLNNFYPREAKVQWKVDNALQSGNSQESVTEQDSKDSTYSLSSTLTLSKADYEKHKVYACEVTHQGLSSPVTKSFNRGEC
notes: also called PR-1358318
With B4 the “Potency (IC50) pM, MRC-5 bioassay” value (recombinant human IL-1β [17]) was 42.2 pM, the “Potency (IC50) pM, MRC-5 bioassay” value (recombinant human IL-1α [18]) was 41.3 pM and the “Potency (IC50) pM, MRC-5 bioassay” value [19] was 2.13 pM. For the same binder, the “Potency (IC50) pM, MRC-5 bioassay” value [20] was 1900 pM, the “Potency (IC50) pM, MRC-5 bioassay” value [21] was 0.998 pM and the “Potency (IC50) pM, MRC-5 bioassay” value [22] was 50.4 pM. The kon (recombinant human IL-1β [23]) was 3.9e+07 M⁻¹ s⁻¹, the Kd (recombinant human IL-1α [24]) was 30 pM and the koff (recombinant human IL-1α [24]) was 4.2e-06 s⁻¹. It also gave a kon (recombinant human IL-1α [24]) of 140000 M⁻¹ s⁻¹, a Kd [25] of 0.67 pM and a koff [25] of 1.2e-05 s⁻¹. For the same binder, the kon [25] was 1.8e+07 M⁻¹ s⁻¹, the Kd [26] was 2300 pM and the koff [26] was 0.00024 s⁻¹. The kon [26] was 100000 M⁻¹ s⁻¹, the Kd (recombinant human IL-1β [27]) was under 0.026 pM and the koff (recombinant human IL-1β [28]) was under 1e-06 s⁻¹.
